Values of other authors as cited in publication PMC6423427.

Molecular target: BiP (Homo sapiens) (UniProt P11021)
UniProt P11021, sequence (P11021 19-654): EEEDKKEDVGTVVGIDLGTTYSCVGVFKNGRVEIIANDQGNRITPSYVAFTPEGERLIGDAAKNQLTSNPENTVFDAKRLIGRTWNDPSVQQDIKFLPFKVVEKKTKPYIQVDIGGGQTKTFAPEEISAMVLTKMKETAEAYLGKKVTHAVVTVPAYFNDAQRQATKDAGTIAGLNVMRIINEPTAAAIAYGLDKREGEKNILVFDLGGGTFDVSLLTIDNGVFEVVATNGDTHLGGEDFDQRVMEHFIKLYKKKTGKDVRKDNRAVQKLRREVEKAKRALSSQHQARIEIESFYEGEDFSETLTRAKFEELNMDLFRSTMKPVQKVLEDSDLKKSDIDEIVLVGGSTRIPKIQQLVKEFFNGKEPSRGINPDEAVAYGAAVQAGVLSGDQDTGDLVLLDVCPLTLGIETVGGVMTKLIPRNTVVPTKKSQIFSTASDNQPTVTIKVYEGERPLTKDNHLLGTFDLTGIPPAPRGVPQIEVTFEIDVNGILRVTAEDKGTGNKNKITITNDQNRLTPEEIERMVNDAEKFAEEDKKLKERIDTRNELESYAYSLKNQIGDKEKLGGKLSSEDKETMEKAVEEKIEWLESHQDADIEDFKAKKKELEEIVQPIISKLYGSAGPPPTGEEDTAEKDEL

Substance: IRE1 LD (from UniProt O75460)
- Kd: 1500 nM
